# Laboratory results reported in patent US20150344570A1 (published 2015).
# B1: GpH7-A5/GpH7-B3 variant D265_12R/GpL16-k0 (antibody, human IgG1, kappa)
# heavy 1: not shown
# heavy 2: not shown
# light: DIVMTQSPLSLPVTPGEPASISCQASESLVHSNRNTYLHWYLQKPGQSPQLLIYKVSNRFSGVPDRFSGSGSGTDFTLKISRVEAEDVGVYYCSQNTHVPPTFGQGTKVEIERTVAAPSVFIFPPSDEQLKSGTASVVCLLNNFYPREAKVQWKVDNALQSGNSQESVTEQDSKDSTYSLSSTLTLSKADYEKHKVYACEVTHQGLSSPVTKSFNRGEC
# notes: mutation in the GpH7-B3 chain only; also called He Ab
# B2: GpH7-A5/GpH7-B3 variant S267_01G/GpL16-k0 (antibody, human IgG1, kappa)
# heavy 1: not shown
# heavy 2: not shown
# light: B1 light
# notes: as for B1
# B3: GpH7-A5/GpH7-B3 variant S267_04F/GpL16-k0 (antibody, human IgG1, kappa)
# heavy 1: not shown
# heavy 2: not shown
# light: B1 light
# notes: as for B1
# B4: GpH7-A5/GpH7-B3 variant V266_04F/GpL16-k0 (antibody, human IgG1, kappa)
# heavy 1: not shown
# heavy 2: not shown
# light: B1 light
# notes: as for B1
# B5: GpH7-A5/GpH7-B3 variant S267_03V/GpL16-k0 (antibody, human IgG1, kappa)
# heavy 1: not shown
# heavy 2: not shown
# light: B1 light
# notes: as for B1
# B6: GpH7-A5/GpH7-B3 variant D265_18N/GpL16-k0 (antibody, human IgG1, kappa)
# heavy 1: not shown
# heavy 2: not shown
# light: B1 light
# notes: as for B1
# B7: GpH7-A5/GpH7-B3 variant V266_05P/GpL16-k0 (antibody, human IgG1, kappa)
# heavy 1: not shown
# heavy 2: not shown
# light: B1 light
# notes: as for B1
# B8: GpH7-A5/GpH7-B3 variant V266_09D/GpL16-k0 (antibody, human IgG1, kappa)
# heavy 1: not shown
# heavy 2: not shown
# light: B1 light
# notes: as for B1
# B9: GpH7-A5/GpH7-B3 variant V266_16H/GpL16-k0 (antibody, human IgG1, kappa)
# heavy 1: not shown
# heavy 2: not shown
# light: B1 light
# notes: as for B1
# B10: GpH7-A5/GpH7-B3 variant S267_02A/GpL16-k0 (antibody, human IgG1, kappa)
# heavy 1: not shown
# heavy 2: not shown
# light: B1 light
# notes: as for B1
# B11: GpH7-A5/GpH7-B3 variant S267_07I/GpL16-k0 (antibody, human IgG1, kappa)
# heavy 1: not shown
# heavy 2: not shown
# light: B1 light
# notes: as for B1
# B12: GpH7-A5/GpH7-B3 variant D265_13S/GpL16-k0 (antibody, human IgG1, kappa)
# heavy 1: not shown
# heavy 2: not shown
# light: B1 light
# notes: as for B1
# B13: GpH7-A5/GpH7-B3 variant S267_06M/GpL16-k0 (antibody, human IgG1, kappa)
# heavy 1: not shown
# heavy 2: not shown
# light: B1 light
# notes: as for B1
# B14: GpH7-A5/GpH7-B3 variant D265_16H/GpL16-k0 (antibody, human IgG1, kappa)
# heavy 1: not shown
# heavy 2: not shown
# light: B1 light
# notes: as for B1
# B15: GpH7-A5/GpH7-B3 variant V266_06M/GpL16-k0 (antibody, human IgG1, kappa)
# heavy 1: not shown
# heavy 2: not shown
# light: B1 light
# notes: as for B1
# B16: GpH7-A5/GpH7-B3 variant D265_14T/GpL16-k0 (antibody, human IgG1, kappa)
# heavy 1: not shown
# heavy 2: not shown
# light: B1 light
# notes: as for B1
# B17: GpH7-A5/GpH7-B3 variant V266_08L/GpL16-k0 (antibody, human IgG1, kappa)
# heavy 1: not shown
# heavy 2: not shown
# light: B1 light
# notes: as for B1
# B18: GpH7-A5/GpH7-B3 variant S267_05P/GpL16-k0 (antibody, human IgG1, kappa)
# heavy 1: not shown
# heavy 2: not shown
# light: B1 light
# notes: as for B1
# B19: GpH7-A5/GpH7-B3 variant V266_13S/GpL16-k0 (antibody, human IgG1, kappa)
# heavy 1: not shown
# heavy 2: not shown
# light: B1 light
# notes: as for B1
# B20: GpH7-A5/GpH7-B3 variant D265_15Y/GpL16-k0 (antibody, human IgG1, kappa)
# heavy 1: not shown
# heavy 2: not shown
# light: B1 light
# notes: as for B1
# B21: GpH7-A5/GpH7-B3 variant D265_20W/GpL16-k0 (antibody, human IgG1, kappa)
# heavy 1: not shown
# heavy 2: not shown
# light: B1 light
# notes: as for B1
# B22: GpH7-A5/GpH7-B3 variant V266_07I/GpL16-k0 (antibody, human IgG1, kappa)
# heavy 1: not shown
# heavy 2: not shown
# light: B1 light
# notes: as for B1
# B23: GpH7-A5/GpH7-B3 variant V266_02A/GpL16-k0 (antibody, human IgG1, kappa)
# heavy 1: not shown
# heavy 2: not shown
# light: B1 light
# notes: as for B1
# B24: GpH7-A5/GpH7-B3 variant V266_14T/GpL16-k0 (antibody, human IgG1, kappa)
# heavy 1: not shown
# heavy 2: not shown
# light: B1 light
# notes: as for B1
# B25: GpH7-A5/GpH7-B3 variant V266_15Y/GpL16-k0 (antibody, human IgG1, kappa)
# heavy 1: not shown
# heavy 2: not shown
# light: B1 light
# notes: as for B1
# B26: GpH7-A5/GpH7-B3 variant V266_10E/GpL16-k0 (antibody, human IgG1, kappa)
# heavy 1: not shown
# heavy 2: not shown
# light: B1 light
# notes: as for B1
# B27: GpH7-A5/GpH7-B3 variant V266_11K/GpL16-k0 (antibody, human IgG1, kappa)
# heavy 1: not shown
# heavy 2: not shown
# light: B1 light
# notes: as for B1
# Target: T1, FcγRIIb (human, UniProt P31994 43-217)
# T1 construct: extracellular domain; also called FcgRIIb; 2b
# T1 sequence (looked up): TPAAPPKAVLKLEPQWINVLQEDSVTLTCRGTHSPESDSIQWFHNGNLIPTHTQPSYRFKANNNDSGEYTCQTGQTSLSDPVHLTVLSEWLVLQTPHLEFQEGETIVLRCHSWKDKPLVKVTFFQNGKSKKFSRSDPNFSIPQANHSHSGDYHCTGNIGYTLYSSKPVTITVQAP
# Assay: SPR (Biacore), relative binding
row,Binder,He/Con_2b
1,B1,15 % of GpH7-A5/GpH7-B3/GpL16-k0
2,B2,105 % of GpH7-A5/GpH7-B3/GpL16-k0
3,B3,48 % of GpH7-A5/GpH7-B3/GpL16-k0
4,B4,57.6 % of GpH7-A5/GpH7-B3/GpL16-k0
5,B5,192 % of GpH7-A5/GpH7-B3/GpL16-k0
6,B6,6.1 % of GpH7-A5/GpH7-B3/GpL16-k0
7,B7,0.4 % of GpH7-A5/GpH7-B3/GpL16-k0
8,B8,10.1 % of GpH7-A5/GpH7-B3/GpL16-k0
9,B9,57.2 % of GpH7-A5/GpH7-B3/GpL16-k0
10,B10,243 % of GpH7-A5/GpH7-B3/GpL16-k0
11,B11,192 % of GpH7-A5/GpH7-B3/GpL16-k0
12,B12,11.3 % of GpH7-A5/GpH7-B3/GpL16-k0
13,B13,210 % of GpH7-A5/GpH7-B3/GpL16-k0
14,B14,38.3 % of GpH7-A5/GpH7-B3/GpL16-k0
15,B15,251 % of GpH7-A5/GpH7-B3/GpL16-k0
16,B16,16 % of GpH7-A5/GpH7-B3/GpL16-k0
17,B17,236 % of GpH7-A5/GpH7-B3/GpL16-k0
18,B18,31.5 % of GpH7-A5/GpH7-B3/GpL16-k0
19,B19,54.4 % of GpH7-A5/GpH7-B3/GpL16-k0
20,B20,0.6 % of GpH7-A5/GpH7-B3/GpL16-k0
21,B21,1.1 % of GpH7-A5/GpH7-B3/GpL16-k0
22,B22,152 % of GpH7-A5/GpH7-B3/GpL16-k0
23,B23,81 % of GpH7-A5/GpH7-B3/GpL16-k0
24,B24,82.3 % of GpH7-A5/GpH7-B3/GpL16-k0
25,B25,49.4 % of GpH7-A5/GpH7-B3/GpL16-k0
26,B26,15.2 % of GpH7-A5/GpH7-B3/GpL16-k0
27,B27,1 % of GpH7-A5/GpH7-B3/GpL16-k0

# Target: T2, FcγRIIIa (human, UniProt P08637 17-208)
# T2 construct: extracellular domain; also called FcgRIIIa; 3a
# Assay: SPR (Biacore), relative binding
# T2 sequence (P08637 17-208): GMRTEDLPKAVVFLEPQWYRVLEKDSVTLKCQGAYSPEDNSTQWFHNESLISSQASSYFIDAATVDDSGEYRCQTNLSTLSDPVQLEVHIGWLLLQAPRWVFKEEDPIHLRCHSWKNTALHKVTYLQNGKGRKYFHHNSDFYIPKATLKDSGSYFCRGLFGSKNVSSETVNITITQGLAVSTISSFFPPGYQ
row,Binder,He/Con_3a
1,B1,3.2 % of GpH7-A5/GpH7-B3/GpL16-k0
2,B2,53.8 % of GpH7-A5/GpH7-B3/GpL16-k0
3,B3,11 % of GpH7-A5/GpH7-B3/GpL16-k0
4,B4,34.7 % of GpH7-A5/GpH7-B3/GpL16-k0
5,B5,30.8 % of GpH7-A5/GpH7-B3/GpL16-k0
6,B6,4.6 % of GpH7-A5/GpH7-B3/GpL16-k0
7,B7,-0.7 % of GpH7-A5/GpH7-B3/GpL16-k0
8,B8,2.7 % of GpH7-A5/GpH7-B3/GpL16-k0
9,B9,21.3 % of GpH7-A5/GpH7-B3/GpL16-k0
10,B10,150 % of GpH7-A5/GpH7-B3/GpL16-k0
11,B11,25.2 % of GpH7-A5/GpH7-B3/GpL16-k0
12,B12,3.9 % of GpH7-A5/GpH7-B3/GpL16-k0
13,B13,66 % of GpH7-A5/GpH7-B3/GpL16-k0
14,B14,13.6 % of GpH7-A5/GpH7-B3/GpL16-k0
15,B15,85.8 % of GpH7-A5/GpH7-B3/GpL16-k0
16,B16,4.3 % of GpH7-A5/GpH7-B3/GpL16-k0
17,B17,118 % of GpH7-A5/GpH7-B3/GpL16-k0
18,B18,15.7 % of GpH7-A5/GpH7-B3/GpL16-k0
19,B19,28.1 % of GpH7-A5/GpH7-B3/GpL16-k0
20,B20,-1.7 % of GpH7-A5/GpH7-B3/GpL16-k0
21,B21,-0.5 % of GpH7-A5/GpH7-B3/GpL16-k0
22,B22,114 % of GpH7-A5/GpH7-B3/GpL16-k0
23,B23,57.4 % of GpH7-A5/GpH7-B3/GpL16-k0
24,B24,39.4 % of GpH7-A5/GpH7-B3/GpL16-k0
25,B25,14.5 % of GpH7-A5/GpH7-B3/GpL16-k0
26,B26,4.1 % of GpH7-A5/GpH7-B3/GpL16-k0
27,B27,-0.7 % of GpH7-A5/GpH7-B3/GpL16-k0

# Target: T2, FcγRIIIa
# Assay: SPR; He/Con_3a divided by He/Con_2b (FcγRIIIa against FcγRIIb)
row,Binder,He_3a/2b (IIIa/IIb)
1,B1,0.21 ratio
2,B2,0.51 ratio
3,B3,0.23 ratio
4,B4,0.6 ratio
5,B5,0.16 ratio
6,B6,0.74 ratio
7,B7,-1.98 ratio
8,B8,0.27 ratio
9,B9,0.37 ratio
10,B10,0.62 ratio
11,B11,0.13 ratio
12,B12,0.35 ratio
13,B13,0.31 ratio
14,B14,0.35 ratio
15,B15,0.34 ratio
16,B16,0.27 ratio
17,B17,0.5 ratio
18,B18,0.5 ratio
19,B19,0.52 ratio
20,B20,-2.86 ratio
21,B21,-0.48 ratio
22,B22,0.75 ratio
23,B23,0.71 ratio
24,B24,0.48 ratio
25,B25,0.29 ratio
26,B26,0.27 ratio
27,B27,-0.7 ratio
